Usually Kd stands for the free concentration of one partner at which half of the binding sites on the other are occupied at equilibrium, for simple one-to-one binding.

The target in test [1] is Cyno TfR extracellular domain (analogous ecd construct) (cynomolgus monkey). Description: SPR, bispecific antibody.
Test [2] deals with Human TfR extracellular domain (ecd) containing an N-terminal His tag (human) (UniProt P02786). Description: SPR, bispecific antibody. In general terms: Surface plasmon resonance follows binding to a sensor surface in real time, without labels.
Chain of Human TfR extracellular domain (ecd) containing an N-terminal His tag (human) (P02786 89-760 G142S): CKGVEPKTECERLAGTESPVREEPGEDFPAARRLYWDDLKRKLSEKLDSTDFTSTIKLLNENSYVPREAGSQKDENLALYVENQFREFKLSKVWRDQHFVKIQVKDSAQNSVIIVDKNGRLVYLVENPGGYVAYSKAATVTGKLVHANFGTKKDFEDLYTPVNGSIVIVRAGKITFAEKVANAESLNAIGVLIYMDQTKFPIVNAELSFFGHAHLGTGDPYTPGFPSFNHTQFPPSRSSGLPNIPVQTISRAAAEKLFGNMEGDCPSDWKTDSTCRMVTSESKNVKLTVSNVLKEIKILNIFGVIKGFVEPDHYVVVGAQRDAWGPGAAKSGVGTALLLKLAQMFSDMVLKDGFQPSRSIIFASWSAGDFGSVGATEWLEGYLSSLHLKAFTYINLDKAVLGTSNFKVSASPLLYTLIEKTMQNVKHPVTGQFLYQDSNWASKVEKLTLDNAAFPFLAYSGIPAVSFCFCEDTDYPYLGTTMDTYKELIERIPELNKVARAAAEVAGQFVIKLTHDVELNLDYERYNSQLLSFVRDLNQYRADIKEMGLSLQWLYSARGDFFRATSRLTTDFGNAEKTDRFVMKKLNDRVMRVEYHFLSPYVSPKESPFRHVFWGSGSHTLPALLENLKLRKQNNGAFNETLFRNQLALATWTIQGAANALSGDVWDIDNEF

Chain of Cyno TfR extracellular domain (analogous ecd construct) (cynomolgus monkey) (Q5RDH6 other isoform, or with tags, fused parts or gaps): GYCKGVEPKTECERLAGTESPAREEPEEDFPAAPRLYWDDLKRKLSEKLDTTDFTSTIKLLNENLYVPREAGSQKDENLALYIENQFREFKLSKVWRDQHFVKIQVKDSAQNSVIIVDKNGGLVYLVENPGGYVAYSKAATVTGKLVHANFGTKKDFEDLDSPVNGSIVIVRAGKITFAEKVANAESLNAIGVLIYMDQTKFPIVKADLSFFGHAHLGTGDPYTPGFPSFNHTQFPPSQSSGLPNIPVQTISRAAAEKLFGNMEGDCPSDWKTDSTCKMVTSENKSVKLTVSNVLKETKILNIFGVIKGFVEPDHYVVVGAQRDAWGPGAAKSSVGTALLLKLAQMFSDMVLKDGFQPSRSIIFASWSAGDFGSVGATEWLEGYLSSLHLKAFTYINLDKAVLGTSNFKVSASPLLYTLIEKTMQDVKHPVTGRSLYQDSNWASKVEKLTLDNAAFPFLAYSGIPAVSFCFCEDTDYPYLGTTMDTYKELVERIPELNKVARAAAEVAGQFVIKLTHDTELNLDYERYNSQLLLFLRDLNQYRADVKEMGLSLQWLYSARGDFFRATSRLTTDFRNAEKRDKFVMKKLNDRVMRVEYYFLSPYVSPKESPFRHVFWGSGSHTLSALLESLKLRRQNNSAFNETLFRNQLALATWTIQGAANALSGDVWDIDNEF

B1: Anti-TfR^53A/BACE1 bispecific antibody, human IgG1 N297G (bispecific antibody, part only; not given: anti-BACE1 half-antibody, V domains shown, not shown: another chain or arm of the molecule; a dimerising Fc or GST; small tags and cut ends)
VH: EVQLVQSGAEVKKPGASVKVSCKASGYTFTSYWMHWVRQAPGQRLEWIGEINPANGRTNYIEKFKSRATLTVDKSASTAYMELSSLRSEDTAVYYCARGTRAYHYWGQGTMVTVSS
VL: DIQMTQSPSSLSASVGDRVTITCRASDNLYSNLAWYQQKPGKSPKLLVYDATNLADGVPSRFSGSGSGTDYTLTISSLQPEDFATYYCQHFWGTPLTFGQGTKVEIK
On to B1, for which the Kd amounted to 143 nM in test [1] and 24 nM in test [2].

Source of the values: patent US20210087288A1.
